Test results from patent US20260008817A1, “CYCLIC PEPTIDE OR SALT THEREOF, AND USES THEREOF” (FUJIFILM Corporation, priority 2023, published 2026).
Positions of bridges follow the written chain, without caps; N, C: chain ends. No end group written: not given here. COCH2 = acetyl group that carries the bridge

The substances below were run against T1, Recombinant Human FGFR1 alpha (IIIc) Fc Chimera Protein (Homo sapiens, UniProt P11362) (assay: ELISA binding affinity of enzymatically synthesized peptide to FGFR). Conditions: ELISA luminescence signal at 10 nmol/L peptide, SEQ ID NO: 239 standardized to 1; enzyme synthesis product.
T1 construct: purchased R&D systems 658-FR-050
T1 sequence (P11362 with tags, fused parts or gaps limits assumed): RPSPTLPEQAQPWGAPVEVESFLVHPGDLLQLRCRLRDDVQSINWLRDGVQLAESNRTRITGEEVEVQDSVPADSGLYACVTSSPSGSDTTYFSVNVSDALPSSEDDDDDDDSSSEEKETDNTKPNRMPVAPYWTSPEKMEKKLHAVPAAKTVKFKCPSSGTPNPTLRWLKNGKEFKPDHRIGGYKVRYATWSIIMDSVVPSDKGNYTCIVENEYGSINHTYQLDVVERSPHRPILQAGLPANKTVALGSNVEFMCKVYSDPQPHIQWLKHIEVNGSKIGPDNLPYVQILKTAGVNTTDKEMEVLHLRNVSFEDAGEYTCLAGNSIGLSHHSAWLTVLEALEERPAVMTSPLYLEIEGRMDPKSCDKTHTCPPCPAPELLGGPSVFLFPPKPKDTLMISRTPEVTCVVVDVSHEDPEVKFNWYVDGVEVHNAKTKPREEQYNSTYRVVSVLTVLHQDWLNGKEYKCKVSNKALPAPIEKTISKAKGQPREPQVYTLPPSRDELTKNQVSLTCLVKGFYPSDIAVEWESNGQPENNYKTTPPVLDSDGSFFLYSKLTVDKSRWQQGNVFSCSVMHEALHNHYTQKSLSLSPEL
In short: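 Cell-free PUREfrex-translated cyclic peptides (Myc/HiBiT-tagged, quantified by HiBiT luminescence) bound 3 h at room temperature to immobilized FGFR1α(IIIc)-Fc, detected with anti-Myc and chemiluminescence. FGFR-specific signal at 10 nmol/L normalized to a reference cyclic peptide and graded A–D.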

Question: With “213 (ICVYTFDAHAHSLHAATTK(COCH2)I; thioether 2-19 (inferred)) [compound 213]” as the substance, how does the “Evaluation result of binding affinity to FGFR” value (shortened to “Evaluation result”) read?
Answer: The value was “C (0.1 or more and less than 0.5)”.

Question: For “214 (ICVYTFDAHAHSLHAALAK(COCH2)I; thioether 2-19 (inferred)) [compound 214]”, which “Evaluation result” value is on record?
Answer: The value was “C (0.1 or more and less than 0.5)”.

Question: Which “Evaluation result” value does the source give for “215 (ICVYTFDAHAHSLHAALGK(COCH2)I; thioether 2-19 (inferred)) [compound 215]” here?
Answer: Its value is “C (0.1 or more and less than 0.5)”.

Question: Which “Evaluation result” value does the source give for “216 (ICVYTFDAHAHSLHAALPK(COCH2)I; thioether 2-19 (inferred)) [compound 216]” here?
Answer: The value was “C (0.1 or more and less than 0.5)”.

Question: Which “Evaluation result” value does the source give for “217 (ICVYTFDAHAHSLHAALVK(COCH2)I; thioether 2-19 (inferred)) [compound 217]” here?
Answer: Its value is “C (0.1 or more and less than 0.5)”.

Question: Which “Evaluation result” value does the source give for “218 (ICVYTFDAHAHSLHAALFK(COCH2)I; thioether 2-19 (inferred)) [compound 218]” here?
Answer: The value was “C (0.1 or more and less than 0.5)”.

Question: For “219 (ICVYTFDAHAHSLHAALNK(COCH2)I; thioether 2-19 (inferred)) [compound 219]”, which “Evaluation result” value is on record?
Answer: Its value is “A (0.7 or more)”.

Question: “220 (ICVYTFDAHAHSLHAALQK(COCH2)I; thioether 2-19 (inferred)) [compound 220]” was tested. Which “Evaluation result” value did it give?
Answer: The value was “A (0.7 or more)”.

Question: For “221 (ICVYTFDAHAHSLHAALSK(COCH2)I; thioether 2-19 (inferred)) [compound 221]”, which “Evaluation result” value is on record?
Answer: Its value is “C (0.1 or more and less than 0.5)”.

Question: Which “Evaluation result” value does the source give for “222 (ICVYTFDAHAHSLHAALEK(COCH2)I; thioether 2-19 (inferred)) [compound 222]” here?
Answer: Its value is “C (0.1 or more and less than 0.5)”.

Question: “223 (ICVYTFDAHAHSLHAALRK(COCH2)I; thioether 2-19 (inferred)) [compound 223]” was tested. Which “Evaluation result” value did it give?
Answer: The value was “A (0.7 or more)”.

Question: Which “Evaluation result” value does the source give for “224 (ICVYTFDAHAHSLHAALHK(COCH2)I; thioether 2-19 (inferred)) [compound 224]” here?
Answer: Its value is “A (0.7 or more)”.

Question: With “225 (ICVYTFDAHAHSLHAALTK(COCH2)A; thioether 2-19 (inferred)) [compound 225]” as the substance, how does the “Evaluation result” value read?
Answer: Its value is “B (0.5 or more and less than 0.7)”.

Question: How did the “Evaluation result” value turn out when “226 (ICVYTFDAHAHSLHAALTK(COCH2)L; thioether 2-19 (inferred)) [compound 226]” was run?
Answer: Its value is “C (0.1 or more and less than 0.5)”.

Question: How did the “Evaluation result” value turn out when “227 (ICVYTFDAHAHSLHAALTK(COCH2)V; thioether 2-19 (inferred)) [compound 227]” was run?
Answer: Its value is “A (0.7 or more)”.

Question: Which “Evaluation result” value does the source give for “228 (ICVYTFDAHAHSLHAALTK(COCH2)F; thioether 2-19 (inferred)) [compound 228]” here?
Answer: The value was “C (0.1 or more and less than 0.5)”.

Question: With “229 (ICVYTFDAHAHSLHAALTK(COCH2)Y; thioether 2-19 (inferred)) [compound 229]” as the substance, how does the “Evaluation result” value read?
Answer: The value was “C (0.1 or more and less than 0.5)”.

Question: For “230 (ICVYTFDAHAHSLHAALTK(COCH2)W; thioether 2-19 (inferred)) [compound 230]”, which “Evaluation result” value is on record?
Answer: The value was “A (0.7 or more)”.

Question: Which “Evaluation result” value does the source give for “231 (ICVYTFDAHAHSLHAALTK(COCH2)N; thioether 2-19 (inferred)) [compound 231]” here?
Answer: The value was “C (0.1 or more and less than 0.5)”.

Question: “232 (ICVYTFDAHAHSLHAALTK(COCH2)Q; thioether 2-19 (inferred)) [compound 232]” was tested. Which “Evaluation result” value did it give?
Answer: The value was “A (0.7 or more)”.

Question: With “233 (ICVYTFDAHAHSLHAALTK(COCH2)S; thioether 2-19 (inferred)) [compound 233]” as the substance, how does the “Evaluation result” value read?
Answer: The value was “C (0.1 or more and less than 0.5)”.

Question: With “234 (ICVYTFDAHAHSLHAALTK(COCH2)T; thioether 2-19 (inferred)) [compound 234]” as the substance, how does the “Evaluation result” value read?
Answer: The value was “C (0.1 or more and less than 0.5)”.

Question: Which “Evaluation result” value does the source give for “235 (ICVYTFDAHAHSLHAALTK(COCH2)R; thioether 2-19 (inferred)) [compound 235]” here?
Answer: Its value is “A (0.7 or more)”.

Question: With “236 (ICVYTFDAHAHSLHAALTK(COCH2)H; thioether 2-19 (inferred)) [compound 236]” as the substance, how does the “Evaluation result” value read?
Answer: Its value is “A (0.7 or more)”.

Question: Which “Evaluation result” value does the source give for “237 (VCIYTFNHLAQTYWQSLNK(COCH2)V; thioether 2-19 (inferred)) [compound 237]” here?
Answer: Its value is “A (0.7 or more)”.

Question: Which “Evaluation result” value does the source give for “238 (VCIWVFNRFAHTLKESLTK(COCH2)V; thioether 2-19 (inferred)) [compound 238]” here?
Answer: Its value is “C (0.1 or more and less than 0.5)”.

Question: “239 (ACVWTFDRHAQEISQALHKV; not fully specified (residue 19, bridges); also: cyclic peptide, ring not given here) [compound 239]” was tested. Which “Evaluation result” value did it give?
Answer: The value was “A (0.7 or more)”.

Question: Which “Evaluation result” value does the source give for “240 (ACVYLFNWRATSYGKSLIK(COCH2)W; thioether 2-19 (inferred)) [compound 240]” here?
Answer: Its value is “A (0.7 or more)”.

Question: “241 (HCKLYSYPLWYWPKWVFQTK(COCH2)E; thioether 2-20 (inferred)) [compound 241]” was tested. Which “Evaluation result” value did it give?
Answer: Its value is “C (0.1 or more and less than 0.5)”.

Question: For “242 (ACGVHQWEIGEWFGYRYYYK(COCH2)P; thioether 2-20 (inferred)) [compound 242]”, which “Evaluation result” value is on record?
Answer: Its value is “B (0.5 or more and less than 0.7)”.

Question: How did the “Evaluation result” value turn out when “243 (QCYLPSWFYQKARLLFQYIK(COCH2)S; thioether 2-20 (inferred)) [compound 243]” was run?
Answer: Its value is “C (0.1 or more and less than 0.5)”.

Question: With “244 (DCTQGKILTYSQALFSFGVK(COCH2)I; thioether 2-20 (inferred)) [compound 244]” as the substance, how does the “Evaluation result” value read?
Answer: The value was “A (0.7 or more)”.

Question: How did the “Evaluation result” value turn out when “245 (NCVYYAKPVFAHANRVWTYIK(COCH2)I; thioether 2-21 (inferred)) [compound 245]” was run?
Answer: Its value is “A (0.7 or more)”.

Question: “246 (PCIYTFDQSAIKYKIGFVLRK(COCH2)V; thioether 2-21 (inferred)) [compound 246]” was tested. Which “Evaluation result” value did it give?
Answer: Its value is “C (0.1 or more and less than 0.5)”.

Question: For “248 (QCWLQGPYWSDIKIYIYQHDK(COCH2)Y; thioether 2-21 (inferred)) [compound 248]”, which “Evaluation result” value is on record?
Answer: The value was “C (0.1 or more and less than 0.5)”.

Question: “249 (VCVRPIFIFSFRAPFNAVDWK(COCH2)I; thioether 2-21 (inferred)) [compound 249]” was tested. Which “Evaluation result” value did it give?
Answer: Its value is “C (0.1 or more and less than 0.5)”.

Question: With “251 (TCWTAWQWFGHWVPFVAK(COCH2)T; thioether 2-18 (inferred)) [compound 251]” as the substance, how does the “Evaluation result” value read?
Answer: The value was “C (0.1 or more and less than 0.5)”.

Question: How did the “Evaluation result” value turn out when “252 (RCVYSFDPARYPYHLKK(COCH2)V; thioether 2-17 (inferred)) [compound 252]” was run?
Answer: Its value is “A (0.7 or more)”.

Question: Which “Evaluation result” value does the source give for “253 (TCFSPGQIWIWTHLVTAIRNK(COCH2)T; thioether 2-21 (inferred)) [compound 253]” here?
Answer: Its value is “B (0.5 or more and less than 0.7)”.

Question: How did the “Evaluation result” value turn out when “254 (LCVYTFNWQQKFGHHLTK(COCH2)I; thioether 2-18 (inferred)) [compound 254]” was run?
Answer: The value was “C (0.1 or more and less than 0.5)”.

Question: “255 (FCTLWQFGNLVWTHESPFIK(COCH2)Q; thioether 2-20 (inferred)) [compound 255]” was tested. Which “Evaluation result” value did it give?
Answer: The value was “C (0.1 or more and less than 0.5)”.

Question: For “256 (DCVYQYDRNAHYWDTALVK(COCH2)V; thioether 2-19 (inferred)) [compound 256]”, which “Evaluation result” value is on record?
Answer: The value was “A (0.7 or more)”.

Question: With “257 (FCAWVVDYQELHQFWSIVQK(COCH2)I; thioether 2-20 (inferred)) [compound 257]” as the substance, how does the “Evaluation result” value read?
Answer: Its value is “C (0.1 or more and less than 0.5)”.

Question: With “258 (VCVRPIFIFSFRAPFNAVDWK(COCH2)N; thioether 2-21 (inferred)) [compound 258]” as the substance, how does the “Evaluation result” value read?
Answer: The value was “A (0.7 or more)”.

Question: With “259 (TCNIWQFNPAARWGFHLVYK(COCH2)Y; thioether 2-20 (inferred)) [compound 259]” as the substance, how does the “Evaluation result” value read?
Answer: Its value is “C (0.1 or more and less than 0.5)”.

Question: “260 (ICREVIVGSLYTWDGNRGFFKV; Description of Artificial Sequence: Cyclic peptide) [compound 260]” was tested. Which “Evaluation result” value did it give?
Answer: The value was “C (0.1 or more and less than 0.5)”.

Question: With “261 (LCYINLFTHTKV; Description of Artificial Sequence: Cyclic peptide) [compound 261]” as the substance, how does the “Evaluation result” value read?
Answer: The value was “C (0.1 or more and less than 0.5)”.

Question: “262 (WCNFANVWTFNKS; Description of Artificial Sequence: Cyclic peptide) [compound 262]” was tested. Which “Evaluation result” value did it give?
Answer: Its value is “C (0.1 or more and less than 0.5)”.

Question: “263 (QCYHIIVYTFVKP; Description of Artificial Sequence: Cyclic peptide) [compound 263]” was tested. Which “Evaluation result” value did it give?
Answer: The value was “C (0.1 or more and less than 0.5)”.

Question: How did the “Evaluation result” value turn out when “264 (VCIFTWDRVHWPVKV; Description of Artificial Sequence: Cyclic peptide) [compound 264]” was run?
Answer: The value was “C (0.1 or more and less than 0.5)”.

Question: How did the “Evaluation result” value turn out when “265 (VCIYTWDRQSWPVKL; Description of Artificial Sequence: Cyclic peptide) [compound 265]” was run?
Answer: The value was “B (0.5 or more and less than 0.7)”.

Question: “266 (DCIWQWHPWSGYTKL; Description of Artificial Sequence: Cyclic peptide) [compound 266]” was tested. Which “Evaluation result” value did it give?
Answer: Its value is “A (0.7 or more)”.

Question: “267 (DCIWQWTPTKSFQKL; Description of Artificial Sequence: Cyclic peptide) [compound 267]” was tested. Which “Evaluation result” value did it give?
Answer: The value was “A (0.7 or more)”.

Question: With “268 (SCIYQWDYVHWPIKL; Description of Artificial Sequence: Cyclic peptide) [compound 268]” as the substance, how does the “Evaluation result” value read?
Answer: The value was “C (0.1 or more and less than 0.5)”.
